Target: human prostate-specific membrane antigen (PSMA), full length, on cells (human) (UniProt Q04609)
Experiment: cell-based or functional assay

Chain of human prostate-specific membrane antigen (PSMA), full length, on cells (human) (Q04609 whole entry): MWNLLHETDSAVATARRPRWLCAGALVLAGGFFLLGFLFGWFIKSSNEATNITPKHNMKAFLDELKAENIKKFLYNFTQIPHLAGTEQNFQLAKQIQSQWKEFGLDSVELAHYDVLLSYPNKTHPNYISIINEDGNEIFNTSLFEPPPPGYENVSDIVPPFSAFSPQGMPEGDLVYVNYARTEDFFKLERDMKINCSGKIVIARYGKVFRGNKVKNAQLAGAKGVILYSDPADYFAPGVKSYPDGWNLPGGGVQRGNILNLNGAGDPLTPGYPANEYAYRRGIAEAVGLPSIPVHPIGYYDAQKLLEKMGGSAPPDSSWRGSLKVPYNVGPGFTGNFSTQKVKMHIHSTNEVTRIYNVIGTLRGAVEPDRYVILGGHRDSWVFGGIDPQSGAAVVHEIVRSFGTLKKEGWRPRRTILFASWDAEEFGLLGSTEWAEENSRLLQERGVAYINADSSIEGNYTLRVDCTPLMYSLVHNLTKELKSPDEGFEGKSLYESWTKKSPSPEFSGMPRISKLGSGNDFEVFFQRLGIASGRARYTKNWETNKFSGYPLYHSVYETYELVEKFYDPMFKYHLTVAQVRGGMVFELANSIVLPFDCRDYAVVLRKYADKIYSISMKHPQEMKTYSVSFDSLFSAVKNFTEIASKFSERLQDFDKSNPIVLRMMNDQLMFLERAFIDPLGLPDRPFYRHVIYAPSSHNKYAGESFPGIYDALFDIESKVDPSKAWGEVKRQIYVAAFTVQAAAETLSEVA

Substance	IC50 (cytotoxicity on 22RV1 cells, DX8951 ADC, DAR 8, 6 d) [µM]	IC25 (cytotoxicity on 22RV1 cells, MMAF ADC, DAR 4.3, 6 d) [µM]
Isotype control conjugated to DX8951 (antibody)	0.0572	
Isotype control conjugated to MMAF (antibody)		> 0.1

Source: patent publication US20230122503A1, “ANTI-PSMA RADIOCONJUGATES AND USES THEREOF” (Janssen Biotech, Inc., priority 2021, published 2023)
